Measurements reported in the supplement of paper PMC9170038.

Columns and labels:
MS2 coat protein [1] = assay: apparent KD of MS2 coat protein, switch ON state; designed switch direction (-1 OFF switch, 1 ON switch): -1; higher = weaker reporter binding; details: FMN input: 0 or 200 uM; Eterna round: R93 (includes R88 designs)
How it was run: (§1)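 Apparent KD is reported per design as the median of normalised binding-curve fits across its clusters. The RNA switches were made by on-chip transcription from Illumina sequencing clusters. SNAP-549-labelled MS2 coat protein was then added in twofold steps (0.7 or 1.5 nM to 3 µM; 0.8–1.5 h to 10–20 min per step) in 100 mM Tris-HCl pH 7.5, 80 mM KCl, 4 mM MgCl2, without or with constant ligand.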

MS2 coat protein [2] = assay: apparent KD of MS2 coat protein, switch OFF state (with FMN for OFF switches, without FMN for ON switches); designed switch direction (-1 OFF switch, 1 ON switch): -1; higher = weaker reporter binding; details: FMN input: 0 or 200 uM; Eterna round: R93 (includes R88 designs)
How it was run: as §1

Sequence	apparent KD of MS2 coat protein (MS2 coat protein [1]) [µM]	apparent KD of MS2 coat protein (MS2 coat protein [2]) [µM]
AAGAUGUCAGGAUAUACAUAAAUAAAAAAUUAUGUUAAAACACAUGAGGAUCACCCAUGUAGAAGGGACAACAA [AJ 6]	0.0364	0.0207
AAGAAGUCAGGAUAUGCUGCUCGUCACUUGCGUGAUGAGUAGCAGAAGGGACAUGAGGAUCACCCAUGUGGAAA [Modifying Chris (69%) Late G segment 2]	0.123	0.246
AAAAAACAUGAGGAUCACCCAUGUGAGGAUAUCGGUAGUGAGGGUAUAGUGUCAAUAGUGAGAAGGCGCAUAAA [Brourd 613 Mod 13 - Jieux - Exclusion 1]	0.0263	0.028
AAACAACAUGAGGAUCACCCAUGUCAGGAUAUGAACGAAAUAAAAUAAAAAUAAAAGUUCAGAAGGGACGAAAA [Mat - Exclusion 1 - Eli mod - D18]	0.0367	0.0501
CUCUUGUCAGGAUAUUGAAGAAAAGAAGAGAAAGAAAAGAACAAGAAGGGACAUGAGGAUCACCCAUGUAAGAA [EteRNA is fun!]	0.0618	0.0667
GAAAGGUCAGGAUAUACGUUAUGCUAGUGCUCGUACUAUAAGUAGAAGGGACAUGAGGAUCACCCAUGUGAUAA [Kawasakiqro]	0.0452	0.0583
AACUGACAUGAGGAUCACCCAUGUCAGGAUAUGACUUGAUAGAAAAAAAAAUAUCAUGUCAGAAGGGACAUGGG [Design 56 :P Sub-opt I]	0.0214	0.0128
AGAAAACAUGAGGAUCACCCAUGUCAGGAUAUCCUGCGGUGAUACACACCGCGUUGUCGGAGAAGGGACAGGGA [Tiesesmari]	0.0656	0.0819
ACCUGACAUGAGGAUCACCCAUGUCAGGAUAUGCAUCUUAGGAAAAAAAAACUAAGAUGCAGAAGGGACAUGGG [Design 2: Super Stable 2]	0.0254	0.0275
AGUUGGCGAGGAUAUACAUGAGGAUCACCCAUGUGAGAGAAUAAAGUGAGAAAGAAAAGUAGAAGGCGCUCACA [JL Lego Mod 16]	0.0603	0.0451
AGAAAGGCAGGAUAUACAUGAGGAUCACCCAUGUUAAGAAAGACGGAAACGUCAAGAAGUAGAAGGGCCAAGAA [Shaken, but not stirred]	0.0219	0.0197
CUCAAGUGAGGAUAUACGAAUAGUAAGUAAGUAUAACAGACGUAGAAGGCACAUGAGGAUCACCCAUGUAAAUA [JR_Exc004_Sub303]	0.0362	0.028
AUAGGCCAAGGAUAUACAUGAGGAUCACCCAUGUAAAUAACUCGAUCAAAAUAAACAAGUAGAAGGUGGAAUAA [JR_Exc003_Sub204]	0.0251	0.0294
AUAAGUGCAGGAUAUACAAAAUGCUAGCGAAAGCUAGCAUAACAUGAGGAUCACCCAUGUAGAAGGGCACAAUA [Tetraloop hairpin BlockHead... 61% 1]	0.0235	0.0184
UAUAACGAAGGAUAUACUAACGAAACUAAUGCAUAUAUAUAACAUGAGGAUCACCCAUGUAGAAGGUCGAGAAU [JR_Exc002_Sub011]	0.0237	0.0288
GCAUGCGAAGGAUAUACAUGAGGAUCACCCAUGUGAGAGAAAAAAGUGAGAAAGAAAAGUAGAAGGUCGUGUGG [salish99-ex3-94]	0.0407	0.0709
AAAACACAUGAGGAUCACCCAUGUGAGGAUAUGCAUAAAAAAAAAAAAAAAAAAAAAUGCAGAAGGCACAUAAA [jn_camden]	0.021	0.0413
AACUGACAUGAGGAUCACCCAUGUCAGGAUAUGAUAUGUAAAAAAAAAAAAAUACUUAUCAGAAGGGACAUGGG [Design 40: Sub-opt AB]	0.0153	0.0154
GGAAAGUCAGGAUAUGGAUAAUAAAUACAAAUAGAAACAAACCAGAAGGGACAUGAGGAUCACCCAUGUAAACA [Exclusion 4 Electric]	0.0353	0.0226
AUCAUGUUAGGAUAUAUAAGAAAAGAAAAGAAAGAAAAGAAAUAGAAGGAACAUGAGGAUCACCCAUGUAAGAA [EteRNA is fun!]	0.0175	0.0231
AAAAGGUUAGGAUAUGCGUGGAAAAAGUGUAUCUAAAAAAAACAUGAGGAUCACCCAUGUAGAAGGGACUUAAA [Banishment 5 - Jieux - Exclusion 2]	0.0497	0.0371
AGAAAACAUGAGGAUCACCCAUGUAAGGAUAUGCUGAAAAACACGGAAAAAACGUGCAGCAGAAGGUACAAAGA [Mat - Exclusion 1 - Eli mod - D95]	0.0224	0.0408

Sequence	apparent KD of MS2 coat protein (MS2 coat protein [1]) [µM]	apparent KD of MS2 coat protein (MS2 coat protein [2]) [µM]
AAAAACGCAGGAUAUACAUGAGGAUCACCCAUGUAAAAAAAAAAAAAGGGAAAAAAAAGUAGAAGGGCGAAAAA [Menkhaure Snaaib]	0.0214	0.0433
AAAAAACAUGAGGAUCACCCAUGUAAGGAUAUACCUAAAAAAAAAAAAAAAAAAAAUGGUAGAAGGUACAAAAA [excalibur12]	0.0281	0.0675
GAGUAAGGAGGAUAUACAUGAGGAUCACCCAUGUAAAAAGGGAAAGUAGAAAAGUAGAGUAGAAGGCCUAUAGA [JR_Exc003_Sub1702]	0.0704	0.0583
AAAACUGGAGGAUAUACGAACAUGUCAAAAGACGUGAAGGGACAUGAGGAUCACCCAUGUAGAAGGCUAGAAAA [JL Stem Breaker 10]	0.0523	0.0342
AAUAAGUGAGGAUAUGGAAAUAAUAAAUAAAAUAAAAUAAACCAGAAGGCACAUGAGGAUCACCCAUGUAAAUA [JR_Exc004_Sub002]	0.0244	0.022
AGGGAACAUGAGGAUCACCCAUGUGAGGAUAUGCUAUGGAAAUAAAAAAUAAAACAUAGCAGAAGGCAUAAAAA [Mat - Exclusion 1 - Eli mod - D39]	0.0476	0.0461
GUGUACAGAGGAUAUACGGGAGCUAGGAAACUAGCAACCUCACAUGAGGAUCACCCAUGUAGAAGGCUGUACAC [Ex2: 752]	0.159	0.799
CUCUUGUGAGGAUAUUGAAGAAAAGAAGAGAAAGAAAAGAACAAGAAGGCACAUGAGGAUCACCCAUGUAAGAA [EteRNA is fun!]	0.0379	0.0442
AACAGUACAGGAUAUACAUGAGGAUCACCCAUGUGAAUAAAUAGUGGCGUACCACAAAGUAGAAGGGUACUGGA [Mat - Exclusion 3 - JL mod - D25]	0.0274	0.136
GAGGAGUCAGGAUAUCGGGAAAGGUUGAGGAAGAGAAGAAGCGAGAAGGGACAUGAGGAUCACCCAUGUAGAAG [Default title]	0.0467	0.0403
AAAAAGUGAGGAUAUACGGUGAGGAGUAGACACAACCUGGCGUAGAAGGCACAUGAGGAUCACCCAUGUCCAAA [EX4 Malc#13]	0.0373	0.0478
AAGAGUACAGGAUAUAUGUGAAAAGAGUCGAAAGACUCAAAACAUGAGGAUCACCCAUGUAGAAGGGUACUCAA [Diamond 74]	0.0525	0.0273
GAAAAUGGAGGAUAUACAUGAGGAUCACCCAUGUGUAAAAAAAAUUACACAAAAGAAAGUAGAAGGCCAUAAAA [Mat - Exclusion 3 - Mayanna mod - D107]	0.0664	0.174
GAAAAGUCAGGAUAUACAGAAAAAAAAACGAAAAAAAAUCUGUAGAAGGGACAUGAGGAUCACCCAUGUAAAAA [Mat - Exclusion 4 - Mayanna - D122]	0.0514	0.0376
GGAAAACAUGAGGAUCACCCAUGUAAGGAUAUGCAAAAAAGGAUAUAGAAGGAAAAAAGCAGAAGGUACAAAGG [salish99-ex1-23]	0.0271	0.0698
UAAAGACAUGAGGAUCACCCAUGUGAGGAUAUCGGAGAUGACGGAACAUCGAGUUCGGCGAGAAGGCGCAGGAA [JR_Exc001_Sub407]	0.0301	0.0292
AACAUGUUAGGAUAUCAAAGAAAAGAAAAGAAAGAAAAGAAUGAGAAGGAACAUGAGGAUCACCCAUGUAAGAA [EteRNA is fun!]	0.023	0.0221
AGCUAGUCAGGAUAUACAAACAUGUCAAAAGACGUGAAGGGACAUGAGGAUCACCCAUGUAGAAGGGACUAGCA [Web Mod 74% 2]	0.0522	0.217
AAGAGUAGAGGAUAUACAUGAGGAUCACCCAUGUAAUCCAGAUAAGGAAGCAUGGCGUGUAGAAGGCUGCAUGA [MOD of Nando (MS2 Riboswitches- Exclusion 3)]	0.0282	0.0352
AAAGGACGAGGAUAUACAUGAGGAUCACCCAUGUAAGAAGCAUAAUAAAAUAACUUAUGUAGAAGGCGUCCAAA [Mat - Exclusion 3 - Eli mod - D94]	0.026	0.069
AACAGUACAGGAUAUACAUGAGGAUCACCCAUGUCACAAUUAAGCAGCGUAACACAAAGUAGAAGGGUAAUGGA [Ruby 17]	0.0464	0.0311
ACAGUUACAGGAUAUACAAGGAAAAAUAAAAAUAAAAUUCAACAUGAGGAUCACCCAUGUAGAAGGGUAACUGA [Ex2 Design 200: Random 15]	0.03	0.0321
